In assay [1] the target is CagI (untagged, residues 21 to 381) (Helicobacter pylori strain 26695). Description: SEC-MALS. A general note: Size exclusion chromatography separates by hydrodynamic size, large species first.
Assay [2] deals with CagI N-terminal domain (CagI^N) (Helicobacter pylori strain 26695). In words: SEC-SAXS.
Assay [3] has the same target. Description: SEC-MALS.
In assay [4] the target is CagI with a C-terminal strep-tag (residues 21-381) (Helicobacter pylori strain 26695). In words: SEC-MALS.

As a reminder, the stoichiometry N is the number of molecules, sites or subunits per partner or assembly.

Consider “CagI (untagged, residues 21 to 381) (natural protein)”, for which the stoichiometry N in assay [1] turned out to be 2. On to “CagI N-terminal domain (CagI^N) (domain or fragment)”, for which the stoichiometry N in assay [2] and in assay [3] was 2 in each case.

In turn, “CagI with a C-terminal strep-tag (residues 21-381) (natural protein)” gave a stoichiometry N in assay [4] of 2.

Source of the values: publication PMC10194873.
